Source: the nanobody polyreactivity screen of Harvey et al. (2022)

Assay: yeast display, Sf9 membrane polyspecificity reagent, FACS + sequencing; frameworks hold sequencing errors
Procedure, shortened: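 Galactose-induced (36–48 hours) yeast carrying a synthetic nanobody display library were exposed to 10% biotinylated, detergent-solubilized Sf9 membrane reagent at 4 °C for 1 hour. FACS followed streptavidin microbead enrichment, using low and high (top ~1%) gates for expression (anti-HA) and reagent binding (streptavidin). Colony PCR, MiSeq 2 × 250 sequencing and CDR-length filtering followed. Labels for polyreactivity reflect the gate of origin.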

Sequence	polyreactivity (PSR sort gate)
QVQLVESVGGLVQAGGSLRLSCAASGRTFTTNAMGWYRQAPGKERELVAAITIGDDTYYADSVKGRFTISRDNAKNTVYLQMNSLKPEDTAVYYCAADYKRVPFVTQYVSKDGYWGQGTQVTVSS	low polyreactivity
QVQLVESVGGLVQAGGSLRLSCAASGRTFTYNSMGSYRQAPGKERELVAAITRRGGSTYYADSVKGRFTISRDNAKNTVYLQMNSLKPEDTAVYYCAATGYLRTYDYWGQGTQVTVSS	high polyreactivity
QVQLVESVGGLVQAGGSLRLSCAASGRTFVGNTMGWYRQAPGKERELVAAISGSGSRTYYADSVKGRFTISRDNAKNTVYLQMNSLKPEDTGVYYCASQGNYWGQGTQVTVSS	high polyreactivity
QVQLVESVGGLVQAGGSLRLSCAASGRTLGGNAMGWYRQAPGKERELVAAITNSASTYADSVKGRFTISRDNAKNTVYLQMNSLKPEDTAVYYCNAPDPSDQHGDYWGQGTQVTVSS	low polyreactivity
QVQLVESVGGLVQAGGSLRLSCAASGSIFTENAMGWYRQAPGKERELVATITITGSTNYADSVKGRFTISRDNAKNTFYLQMNSLKPEDTEVYYCNADLYIAFSASAYDYWGQGTQVTVSS	low polyreactivity
QVQLVESVGGLVQAGGSLRLSCAASGSIFTWYAMGWYRQAPRKERELVAAITRGGSTYADSVKGRFTISRDNAKNTVYLQMNSLKPEDTAVYYCNAVYGVYDFNYWGQGTQVTVSS	low polyreactivity
QVQLVESVGGLVQAGGSLRLSCAASGSISGYYAMGWYRQAPGKERELVASIRYTGARTYYADSVKGRFTISRDNAKNTVYLQMHSLKPEDTAVYYCAADVNRDRVWGGDYWGQGTQVTVSS	low polyreactivity
QVQLVESVGGLVQAGGSLRLSCAASGSITVANAMGWYSQAPGKESELVAAITDSGDDTYYADSVKGRFTNSRDNAKNTVYLLMNSLKAEDTAVYYCAVEAWSVPPYDYWGQGTQVTVSS	low polyreactivity
QVQLVESVGGLVQAGGSLRLSCAASGSTFAFYDMGWYRQAPGKERELVAAISQSDGDTYYADSVKGRFTISRDNAKNTVYLQMNSLKPEDTAVYYCAAETAHTPEYERGSDYWGQGTQVTVSS	low polyreactivity
QVQLVESVGGLVQAGGSLRLSCAASGSTFGYNAMGWYRHAPGKEMELVAAITRSSSRTYYADYVKGRFTISRDNAKNTVYLQMNSLKPEDTAVYYCAKVRYVVGSIFNYSYNYWGQGTQVTVSS	high polyreactivity
QVQLVESVGGLVQAGGSLRLSCAASGSTFKGYYMGWYRQAPGKERELVAAIDSGGSTYYADSVKGRFTISRDNAKNTVYLQMNSLNPVDTAVYYCAATGQDTYGLDVVDEYDYWGQGTKVTVSS	low polyreactivity
QVQLVESVGGLVQAGGSLRLSCAASGSTFYIYAMGWYRQAPGKERELVADINNSDSTYYADSVKGRFTISRDNAKITVYLQMYSLKPEDTAVYYCAAYDYYIGAYSYGGSDYDYWGQGTQVTVSS	low polyreactivity
QVQLVESVGGLVQAGGSLRLSCAASGSTLDGNPMGWYRQAPGKERELVAAISRSGTSTYYADSVKGRFTISRDNAKNTVYLQMNSLKPEDTAVYYCNKVGYIAFDYWGQGTQVTVSS	low polyreactivity
QVQLVESVGGLVQAGGSLRLSCAASVRTFYNYSMGWYRQAPGKERELVAGISRRGGSTYYADSVKGRFTISRDNAKNTVYLQMNSLKPEDTAVYYCIEDLVRPGYYRYDYRGQGTQVTVSS	high polyreactivity
QVQLVESVGGLVQAGGSLRLSCAASVYAMGWYRPAPGKERELVAAITDSGSTNYADSVKGRFTISRDNAKNTVYLQMNSLKPEDNAVYYCNADPYYATGSWARLPLYQYDYWGPGTQVTVSS	low polyreactivity
QVQLVESVGGLVQAGGSLRLSCAASYAMAWYRQAPGKERELVATITRTDRTNYADSVKGRFTISRDNAMNTVYFQMNSLKPEDTAVYDCNKVEWSAPGDSRKYGYWGQGTQVTVSS	low polyreactivity
QVQLVESVGGLVQAGGSLRLSCAATGRIFHYNAMGWYRQAPGKERELVAAITSSGGTTYYADSVKGRFTISRDIAKNTVYLQMNTLKPEDTAVYYCNAVTSARVNYRGQGTQVTVSS	high polyreactivity
QVQLVESVGGLVQAGGSLRLSCAATGSIFSYYAMGWYRQAPGKERELVAAISVSGGRTYYADSVNGRFTISRDNAKNTVYLQMNSLKPEDTAVYYCATRIRSYYYWGQGTQVTVSS	high polyreactivity
QVQLVESVGGLVQAGGSLRLSCAAYGRTFAPNAMLWYRQAPGKESELVAAISWSGTSTYYADSVKGRFTISRDNSKNTVYLQMYSLKPEDTAFYDCAADMEGRVGSPWTYDYWGQGTQVTVSS	low polyreactivity
QVQLVESVGGLVQAGGSLRLSCAGSGRIFRNYAMGWYRQAPGKERELVAAISDSSGSTYYADSVKGRFTISRDNAKNTVYLQMNILKPEHTAVYFCRYYFGSGYYYWGQGTQVTVSS	high polyreactivity
QVQLVESVGGLVQAGGSLRLSCASSGITFWYYAMGWYRQAPGKERELVAAISYSGDSTYYADSVKGRFTISRDNAKNTVYLQMNSLKPEDTAVYYCAARTRAGAWTSKYHDYWGQGTQGTVSS	high polyreactivity
QVQLVESVGGLVQAGGSLRLSCASSGYIFAYYGMGWYRQAPGNERELVAAISWSGGSTDYADSVKGRFTISRDNAKNTGYLQMNRLKPEDTAVYYCATRKYADRESDYWGQVTQVTVSS	high polyreactivity

Sequence	polyreactivity (PSR sort gate)
QVQLVESVGGLVQAGGSLRLSCPASGFIFSGHTMGWYRQAPGKERELVAAITSGGGRTYYADSVKGRFTISRDNAKNTVYLQMNSLKPEDTAVYYCNTAFVYEYDYWGQGTQVTVSS	high polyreactivity
QVQLVESVGGLVQAGGSLRLSCSASGSTFTGYAMGWYRQARGNEREFVATITKRGGRTYYADSVKGRFTISRDNAKNTVYLQMNSLKPEDSAVYYCARDQGKLFVPYDYWGKGTQVTVSS	high polyreactivity
QVQLVESVGGLVQAGGSLRLSCSASGTFRRNVKGWYRQAPGKERELVAAIRSGGSTYYADSVKGRFTISRDNAKHTVFLQMNSLKPEDTAVYYCASDRPGHSFYDEWYRYDSWGQGTQVTVSS	low polyreactivity
QVQLVESVGGLVQAGGSLRLSGAASGSTFGRYAMGWSRQAPGKEREFVANISWSDGSTNYADSVKGRFTISRDHAKNTVYFQMNSLKPEDTAVYYCATGLGYTAFGKEVYDWHDYWGQGTQVTVSS	low polyreactivity
QVQLVESVGGLVQAGGSLRLSSDASGRTFYSNAMGWYREAPGKERELVAGMNIGGGSTYYADSVKGRFTISRDNAKNTVYLQMYSLIPEATAVYYCAALRWGAYRHGYWGQGTQVTVSW	high polyreactivity
QVQLVESVGGLVQAGGSLRLTCAACGVTFSYNTMGWYRQAPGKERELVAAISRSGGRTYYADSVKGRFTISRDNAKNTVYLQMNSLKPEDTAVYYCARYSVTGFGANSGPEMDYWGHGTQVTVSS	high polyreactivity
QVQLVESVGGLVQAGGSLRLTCAASVITQRFNSMGWYRQAPGKEMELVAAISSGTNTYYADSVKGRFAISRDNAKNTVYLQMNSLKPEDTAVYYCADTLGYYTSGRSYQRYDYWGHGTQVTVSS	low polyreactivity
QVQLVESVGGLVQAGGSLRLTCAASVSIIRYNAMGWYRQAPGKERELVAAITKGAGSTYYADSVKGRFTISRDNAKNTVYLQMNSLKPEDTAVYYCAAAGGTSRRTIYTAFYYWGQGTQVTVSS	high polyreactivity
QVQLVESVGGLVQAGGSLSLSCAASGRIFVWYTMGWYRQAPGKEREFVASINGGGNTNYADSVKGRFTISRDNAKNTVYLQMNSLKPEDTADYYCAREYFGEMDYWGHGTQVTVSS	low polyreactivity
QVQLVESVGGLVQAGGSLSLSSAASGRTFGNYAMGWYRQAPGKERELVADITRRGGSTSYADSVKGRFTISRDNAKNTVYLQMTSLKTEDTAVYYCNKAAEGSSHYDYWGLGTQVTVSS	low polyreactivity
QVQLVESVGGLVQAGGTLRLSCAATEGTIRSNAMGWYRQAPGKESELVAAISRGGSTYYADSVKGRFTISRDNAKNTVYLQMNSLKPEDTAVYYCNVAYYRSGHDNDYWGQGTQVTVSS	high polyreactivity
QVQLVESVGGLVQAGVSLRLSSPATGSTIYFYAMGWYRQEPGKERELVAAISGSGGRKYYADSVKGRFTISRDNAKNTVYLQMNSLKPEDTAVYYCAAEWFPYSEREFLYYYWGQGTQVTVSS	high polyreactivity
QVQLVESVGGLVQAVGSLRLSCAASGNTFYRYAMGWYIQAPGKERELVAAITWRSTYYADSVKGRFTISRDNAKNTVYLQMNSLKPEDTAVYYCAVSVRPYVIYLYDYWGQGTQVTVSS	high polyreactivity
QVQLVESVGGLVQEGGSLRLSCAASGSIRYAMGRYRQAPGKERELDAAISGRGGNTYYADSVKGSFTISRDNAKNTVYLQMNSLKPEDTAVYYCATRGNRVLTGTRYDYWGQGTQITVSS	high polyreactivity
QVQLVESVGGVVQAGGSLRLSCAASGFTFKYYDMGWYRQAPGKERELVAAISRRGGSTSYADSVKGRFTISRDNAKNTVYLQMNSLKPEDTAVYYCAADSSFERSSDYWGHGTQVTVSS	high polyreactivity
QVQLVESVGSLVQAGVSLRLSCAASGFILYANAMGWYRQAPGKERELGAAISRGTSTYYADSVKGRFTISRDNAKNTVYLQMTSLKPEDTAVYYCATSSYRPWGGYYWGQGTQVTVSS	high polyreactivity
QVQLVESVGVLDQAGGSLRLSCAASGFTFVRYAMGWYRQAPGKERELVAAISGSGGRTYYADSVKGRFTISRDTAKNTVYLQLNSLKPEDTAVYYCAAVYLVTRGARYEYWGQGTQVTVSS	high polyreactivity
QVQLVESVGVLVQAGGSLRLSCAASGRTFYRNAVGWYRQAPGKERELVAAISRSGTRTYYADSVKGRFTISRDNATNTVYLQMNSLKPEDTAVYYCNALRVDGGDYWGQGTQVTVSS	high polyreactivity
QVQLVESVRGLVQAGGSLRLSCAASGSTFDNNAMGWYRQAPGKEREFVAAITYSGGGSTSYADSVKGRFTISRDNAKNTVYLQMNSLKPEDPAVYDCAAREFETDGYSLVAYNYWGQGTQVTVSS	low polyreactivity
QVQLVESVRGSVQAGGSLRLSCAASGSTFYENAMGWYRPAPGKVRELVAAITWSGGRTYYADSVKGRFTISRDNAKNTVYLQMYSLKAEDTAVYYCNARARSRKFYYWGQGTQVTVSS	high polyreactivity
QVQLVESVVGLVQAGGSLRLSCAASGSTFLPYTMGWYRQAPGKETELVAGISGSGPRTYYADSVKGRFTISRDNAKNTVYLQMNSLKPEDTAVYYCAKKSSYRYGYWGQGTQVTVSS	high polyreactivity
